Test results taken from article PMC9482650, “Quantitative fragmentomics allow affinity mapping of interactomes” (Nature Communications, 2022).

Columns and labels:
Assay in all cases: holdup assay
Design in all cases: key: below the threshold = too weak to quantify, mostly under pKd 3.1 to 4
AHNAK1, Q09666 = biological target: AHNAK1, Q09666
APBA1_1, Q02410 = biological target: T1, APBA1_1, Q02410
T1 sequence (Q02410 651-752, limits assumed, looked up): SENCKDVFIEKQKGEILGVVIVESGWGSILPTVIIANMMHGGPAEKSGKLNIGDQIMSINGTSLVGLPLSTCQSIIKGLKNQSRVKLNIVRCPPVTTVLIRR

DLG1_1, Q12959 = biological target: DLG1_1, Q12959
DLG1_3, Q12959 = biological target: DLG1_3, Q12959
DLG2_2, Q15700 = biological target: DLG2_2, Q15700
DLG2_3, Q15700 = biological target: DLG2_3, Q15700
GIPC2, Q8TF65 = biological target: GIPC2, Q8TF65
GOPC, Q9HD26 = biological target: GOPC, Q9HD26
GORASP2, Q9H8Y8 = biological target: GORASP2, Q9H8Y8
GRID2IP_1, A4D2P6 = biological target: GRID2IP_1, A4D2P6
GRIP1_2, Q9Y3R0 = biological target: T2, GRIP1_2, Q9Y3R0
T2 sequence (Q9Y3R0 145-248, limits assumed, looked up): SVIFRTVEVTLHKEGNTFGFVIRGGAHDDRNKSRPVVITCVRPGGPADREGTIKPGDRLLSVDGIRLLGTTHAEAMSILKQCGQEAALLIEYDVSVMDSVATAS

GRIP1_3, Q9Y3R0 = biological target: T3, GRIP1_3, Q9Y3R0
T3 sequence (Q9Y3R0 247-346, limits assumed, looked up): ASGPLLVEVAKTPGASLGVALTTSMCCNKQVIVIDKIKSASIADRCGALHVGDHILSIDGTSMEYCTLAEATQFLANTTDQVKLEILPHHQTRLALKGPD

GRIP1_7, Q9Y3R0 = biological target: T4, GRIP1_7, Q9Y3R0
T4 sequence (Q9Y3R0 999-1096, limits assumed, looked up): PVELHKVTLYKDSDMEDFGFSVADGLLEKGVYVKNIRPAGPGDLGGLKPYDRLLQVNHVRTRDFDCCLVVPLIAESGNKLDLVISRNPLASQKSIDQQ

GRIP2_7, Q9C0E4 = biological target: GRIP2_7, Q9C0E4
Inadl_1, Q8NI35 = biological target: Inadl_1, Q8NI35
LDB3, O75112 = biological target: LDB3, O75112
LIN7A, O14910 = biological target: T5, LIN7A, O14910
T5 sequence (O14910 103-200, limits assumed, looked up): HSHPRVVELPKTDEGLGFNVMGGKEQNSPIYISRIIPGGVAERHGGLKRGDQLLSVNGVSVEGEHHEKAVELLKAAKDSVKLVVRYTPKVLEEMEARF

MAGI2_2, Q86UL8 = biological target: MAGI2_2, Q86UL8
MAGI2_3, Q86UL8 = biological target: MAGI2_3, Q86UL8
MPDZ_10, O75970 = biological target: T6, MPDZ_10, O75970
T6 sequence (O75970 1624-1722, limits assumed, looked up): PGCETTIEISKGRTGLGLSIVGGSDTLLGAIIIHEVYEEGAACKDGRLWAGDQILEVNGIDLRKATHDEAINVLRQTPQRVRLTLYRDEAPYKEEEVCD

NHERF3_1, Q5T2W1 = biological target: T7, NHERF3_1, Q5T2W1
T7 sequence (Q5T2W1 4-100, limits assumed, looked up): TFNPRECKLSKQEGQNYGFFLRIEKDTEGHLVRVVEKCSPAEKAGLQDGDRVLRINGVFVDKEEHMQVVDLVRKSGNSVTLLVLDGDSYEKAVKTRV

NHERF4_4, Q86UT5 = biological target: NHERF4_4, Q86UT5
PCLO, Q9Y6V0 = biological target: T8, PCLO, Q9Y6V0
T8 sequence (Q9Y6V0 4491-4600, limits assumed, looked up): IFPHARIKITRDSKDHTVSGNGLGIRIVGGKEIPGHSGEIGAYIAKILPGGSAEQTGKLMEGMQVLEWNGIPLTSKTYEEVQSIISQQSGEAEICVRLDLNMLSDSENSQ

RADIL, Q96JH8 = biological target: T9, RADIL, Q96JH8
T9 sequence (Q96JH8 971-1071, limits assumed, looked up): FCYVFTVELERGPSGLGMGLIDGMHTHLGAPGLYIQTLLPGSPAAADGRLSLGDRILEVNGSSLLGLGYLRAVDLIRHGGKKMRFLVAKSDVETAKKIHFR

SCRIB_3, Q14160 = biological target: SCRIB_3, Q14160
TIAM2, Q8IVF5 = biological target: T10, TIAM2, Q8IVF5
T10 sequence (Q8IVF5 885-986, limits assumed, looked up): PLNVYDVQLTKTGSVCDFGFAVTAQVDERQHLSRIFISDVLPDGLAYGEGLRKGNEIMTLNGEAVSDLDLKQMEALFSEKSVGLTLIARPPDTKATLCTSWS

TJP1_2, Q07157 = biological target: TJP1_2, Q07157
TJP1_3, Q07157 = biological target: TJP1_3, Q07157
[1] = plain residues with an end cap or a label only (N-terminal biotin on a linker: ado-ado)
[2] = plain residues with an end cap or a label only (N-terminal biotin on a linker: ahx)

Measured: pKd

Chain of TJP1_3, Q07157 (Q07157 416-512): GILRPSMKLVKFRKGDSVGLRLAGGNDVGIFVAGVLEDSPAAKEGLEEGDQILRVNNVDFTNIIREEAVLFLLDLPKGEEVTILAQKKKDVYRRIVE
Chain of TJP1_2, Q07157 (Q07157 181-274): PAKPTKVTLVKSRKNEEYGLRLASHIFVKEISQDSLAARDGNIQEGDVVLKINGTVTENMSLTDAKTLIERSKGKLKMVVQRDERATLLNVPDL
Chain of GRID2IP_1, A4D2P6 (A4D2P6 1-87): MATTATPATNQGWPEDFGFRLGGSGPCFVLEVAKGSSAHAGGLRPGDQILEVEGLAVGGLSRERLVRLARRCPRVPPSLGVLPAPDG
Chain of GIPC2, Q8TF65 (Q8TF65 112-203): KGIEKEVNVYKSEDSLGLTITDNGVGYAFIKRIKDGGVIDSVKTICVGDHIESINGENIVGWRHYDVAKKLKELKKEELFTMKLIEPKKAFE
Chain of MAGI2_3, Q86UL8 (Q86UL8 600-682): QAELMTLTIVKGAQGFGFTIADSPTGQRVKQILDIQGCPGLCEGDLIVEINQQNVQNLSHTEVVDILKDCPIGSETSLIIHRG
Chain of AHNAK1, Q09666 (Q09666 4-100): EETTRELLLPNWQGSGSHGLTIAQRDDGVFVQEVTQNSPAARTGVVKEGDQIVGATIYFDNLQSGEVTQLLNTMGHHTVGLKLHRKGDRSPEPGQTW
Chain of LDB3, O75112 (O75112 1-94): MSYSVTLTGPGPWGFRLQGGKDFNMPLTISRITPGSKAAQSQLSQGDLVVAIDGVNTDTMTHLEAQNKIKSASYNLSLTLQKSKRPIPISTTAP
Chain of GRIP2_7, Q9C0E4 (Q9C0E4 934-1023): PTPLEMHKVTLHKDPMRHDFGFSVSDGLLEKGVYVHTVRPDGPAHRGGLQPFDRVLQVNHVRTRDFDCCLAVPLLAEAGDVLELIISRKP
Chain of NHERF4_4, Q86UT5 (Q86UT5 464-550): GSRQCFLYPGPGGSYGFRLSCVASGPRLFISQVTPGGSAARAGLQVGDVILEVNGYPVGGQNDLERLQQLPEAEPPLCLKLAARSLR
Chain of MAGI2_2, Q86UL8 (Q86UL8 410-522): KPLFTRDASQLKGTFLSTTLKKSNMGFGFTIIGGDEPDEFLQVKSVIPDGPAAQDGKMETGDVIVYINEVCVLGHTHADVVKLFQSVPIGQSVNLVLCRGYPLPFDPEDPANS
Chain of SCRIB_3, Q14160 (Q14160 999-1103): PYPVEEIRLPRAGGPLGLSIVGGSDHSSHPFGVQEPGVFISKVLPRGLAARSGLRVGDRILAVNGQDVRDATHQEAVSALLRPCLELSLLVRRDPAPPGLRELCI
Chain of Inadl_1, Q8NI35 (Q8NI35 113-229): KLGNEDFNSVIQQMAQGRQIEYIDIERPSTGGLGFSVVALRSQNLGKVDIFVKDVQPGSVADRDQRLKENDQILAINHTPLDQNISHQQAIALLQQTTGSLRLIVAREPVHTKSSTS

DGVNEKVSCV [HTR2A, P28223]
4.15: MAGI2_2, Q86UL8; [1]
4.19: MPDZ_10, O75970; [1]
4.01: TIAM2, Q8IVF5; [1]
4.72: MAGI2_3, Q86UL8; [1]
3.74: GORASP2, Q9H8Y8; [1]
3.8: DLG2_3, Q15700; [1]
3.84: DLG1_1, Q12959; [1]
4.53: RADIL, Q96JH8; [1]
below the threshold: AHNAK1, Q09666; [1] | APBA1_1, Q02410; [1] | DLG1_3, Q12959; [1] | GIPC2, Q8TF65; [1] | GOPC, Q9HD26; [1] | GRID2IP_1, A4D2P6; [1] | GRIP1_2, Q9Y3R0; [1] | GRIP1_3, Q9Y3R0; [1] | GRIP1_7, Q9Y3R0; [1] | GRIP2_7, Q9C0E4; [1] | Inadl_1, Q8NI35; [1] | LDB3, O75112; [1] | NHERF3_1, Q5T2W1; [1] | NHERF4_4, Q86UT5; [1] | PCLO, Q9Y6V0; [1] | TJP1_2, Q07157; [1] | TJP1_3, Q07157; [1]
3.51: LIN7A, O14910; [1]
4.56: DLG2_2, Q15700; [1]
3.97: SCRIB_3, Q14160; [1]

APSRKLNTEI [TIAM1, Q13009]
3.66: DLG2_3, Q15700; [2]
below the threshold: AHNAK1, Q09666; [2] | APBA1_1, Q02410; [2] | DLG1_1, Q12959; [2] | DLG1_3, Q12959; [2] | DLG2_2, Q15700; [2] | GIPC2, Q8TF65; [2] | GOPC, Q9HD26; [2] | GORASP2, Q9H8Y8; [2] | GRID2IP_1, A4D2P6; [2] | GRIP1_2, Q9Y3R0; [2] | GRIP1_3, Q9Y3R0; [2] | GRIP1_7, Q9Y3R0; [2] | GRIP2_7, Q9C0E4; [2] | Inadl_1, Q8NI35; [2] | LDB3, O75112; [2] | LIN7A, O14910; [2] | MAGI2_2, Q86UL8; [2] | MAGI2_3, Q86UL8; [2] | NHERF3_1, Q5T2W1; [2] | NHERF4_4, Q86UT5; [2] | PCLO, Q9Y6V0; [2] | RADIL, Q96JH8; [2] | SCRIB_3, Q14160; [2] | TIAM2, Q8IVF5; [2] | TJP1_2, Q07157; [2] | TJP1_3, Q07157; [2]
3.75: MPDZ_10, O75970; [2]

EPQYQPGENL [SRC, P12931]
3.71: SCRIB_3, Q14160; [1]
3.82: NHERF3_1, Q5T2W1; [1]
below the threshold: AHNAK1, Q09666; [1] | APBA1_1, Q02410; [1] | DLG1_1, Q12959; [1] | DLG1_3, Q12959; [1] | DLG2_2, Q15700; [1] | DLG2_3, Q15700; [1] | GIPC2, Q8TF65; [1] | GOPC, Q9HD26; [1] | GORASP2, Q9H8Y8; [1] | GRID2IP_1, A4D2P6; [1] | GRIP1_2, Q9Y3R0; [1] | GRIP1_3, Q9Y3R0; [1] | GRIP1_7, Q9Y3R0; [1] | GRIP2_7, Q9C0E4; [1] | Inadl_1, Q8NI35; [1] | LDB3, O75112; [1] | LIN7A, O14910; [1] | MAGI2_2, Q86UL8; [1] | MAGI2_3, Q86UL8; [1] | MPDZ_10, O75970; [1] | NHERF4_4, Q86UT5; [1] | PCLO, Q9Y6V0; [1] | RADIL, Q96JH8; [1] | TIAM2, Q8IVF5; [1] | TJP1_2, Q07157; [1] | TJP1_3, Q07157; [1]
